From patent publication US20190002562A1 (INTERVET, published 2019) come the findings set out here.

As usually defined, the kon is the rate constant with which the complex forms. The Kd is the concentration at which binding is half-saturated. The koff is the first-order rate constant of dissociation. Low values mean slow dissociation, high ones fast dissociation.

Assay [1] has as its target T1, canine PD-1 (canine).
T1 construct: also called canine PD-1 antigen; cPD-1
T1 chain: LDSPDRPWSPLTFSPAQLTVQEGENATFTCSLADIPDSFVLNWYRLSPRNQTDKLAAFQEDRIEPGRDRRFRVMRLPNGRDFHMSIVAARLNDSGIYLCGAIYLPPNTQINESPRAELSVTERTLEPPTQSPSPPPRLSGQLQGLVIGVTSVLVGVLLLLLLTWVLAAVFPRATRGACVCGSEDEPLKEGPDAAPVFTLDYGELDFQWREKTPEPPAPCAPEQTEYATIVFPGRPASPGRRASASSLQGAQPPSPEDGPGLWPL
As to the kind of experiment: SPR (Biacore T200), canine PD-1 amine-coupled, antibody as analyte, 1:1 fit.

Assay [2] has as its target T1, canine PD-1. As to the kind of experiment: SPR (Biacore T200), canine PD-1 amine-coupled, antibody as analyte, 1:1 fit; off-rate below the detection limit. (SPR reads the build-up and loss of mass on a sensor chip optically.)

B1: Murine 2H9 (antibody, V domains shown)
VH: EVQLQQSVAELVRPGASVKLSCTASGFNIKNTYMHWIKQRPEQGLEWIGRIAPANVDTKYAPKFQGKATITADTSSNTAYMQLSTLTSEDTAIYYCVLIYYDYDGDIDVWGTGTTVTVSS
VL: DIQMNQSPSSLSASLGDTITITCHASQNINVWLSWYQQRPGNIPKLLIYKASHLHTGVPSRFSGSGSGTGFTLTISSLQPEDIATYYCQQGQSWPLTFGAGTKLELK
The molecule B1 had an association rate constant (kon) in assay [1] of 23000 M⁻¹ s⁻¹. Further, in assay [2], the Kd was ≤ 0.2 nM and the koff was ≤ 5e-06 s⁻¹.
